Experimental data as given in patent publication US20240000840A1.

Biological target: CD20 on CD20+ human Burkitt's lymphoma cell lines (Ramos, Raji) (human) (UniProt P11836)
Experiment: cell-based or functional assay

Chain of UniProt P11836 (P11836 whole entry): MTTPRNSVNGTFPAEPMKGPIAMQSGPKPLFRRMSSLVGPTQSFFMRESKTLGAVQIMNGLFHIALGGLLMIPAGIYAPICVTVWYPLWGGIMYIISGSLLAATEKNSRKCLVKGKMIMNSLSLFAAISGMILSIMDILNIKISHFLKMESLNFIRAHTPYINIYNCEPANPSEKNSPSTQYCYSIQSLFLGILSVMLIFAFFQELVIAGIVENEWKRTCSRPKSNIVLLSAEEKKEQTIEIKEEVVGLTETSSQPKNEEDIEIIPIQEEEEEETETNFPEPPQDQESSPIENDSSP

% of Raji alive, AB-101 + RTX, 24 h, batch 19AB101PN001: 13.8% | % of Raji alive, AB-101 + RTX, 24 h, batch 19AB101PN004: 21.1% | % of Raji alive, AB-101 + RTX, 24 h, batch 19AB101PN005: 34.1% | % of Raji alive, AB-101 + RTX, 24 h, batch 20AB101PG001: 25.8% | % of Raji alive, AB-101 + RTX, 24 h, batch 20AB101PG002: 14.3% | % of Raji alive, AB-101 + RTX, 24 h, batch 20AB101PN001: 16.8% | % of Raji alive, AB-101 + RTX, 24 h, batch 20AB101PN002: 26.6% | % of Raji alive, AB-101 + RTX, 24 h, batch 20AB101PN003: 28.4% | % of Raji alive, AB-101 + RTX, 24 h, batch 20AB101PN004: 34.3% | % of Raji alive, AB-101 + RTX, 48 h, batch 19AB101PN001: 6.6% | % of Raji alive, AB-101 + RTX, 48 h, batch 19AB101PN004: 8.9% | % of Raji alive, AB-101 + RTX, 48 h, batch 19AB101PN005: 18.6% | % of Raji alive, AB-101 + RTX, 48 h, batch 20AB101PG001: 11.7% | % of Raji alive, AB-101 + RTX, 48 h, batch 20AB101PG002: 5.5% | % of Raji alive, AB-101 + RTX, 48 h, batch 20AB101PN001: 9.2% | % of Raji alive, AB-101 + RTX, 48 h, batch 20AB101PN002: 12.5% | % of Raji alive, AB-101 + RTX, 48 h, batch 20AB101PN003: 13.3% | % of Raji alive, AB-101 + RTX, 48 h, batch 20AB101PN004: 18.6% | % of Raji alive, AB-101 + RTX, 72 h, batch 19AB101PN001: 4.5% | % of Raji alive, AB-101 + RTX, 72 h, batch 19AB101PN004: 9.4% | % of Raji alive, AB-101 + RTX, 72 h, batch 19AB101PN005: 11.5% | % of Raji alive, AB-101 + RTX, 72 h, batch 20AB101PG001: 9.6% | % of Raji alive, AB-101 + RTX, 72 h, batch 20AB101PG002: 3.6% | % of Raji alive, AB-101 + RTX, 72 h, batch 20AB101PN001: 7.5% | % of Raji alive, AB-101 + RTX, 72 h, batch 20AB101PN002: 13.9% | % of Raji alive, AB-101 + RTX, 72 h, batch 20AB101PN003: 12.3% | % of Raji alive, AB-101 + RTX, 72 h, batch 20AB101PN004: 18.3% | % of Ramos alive, AB-101 + RTX, 24 h, AVE of 9 batches (raw data table; differs from 47.6 in Table 26): 47.9% | % of Ramos alive, AB-101 + RTX, 24 h, batch 19AB101PN001: 29.5% | % of Ramos alive, AB-101 + RTX, 24 h, batch 19AB101PN004: 37.1% | % of Ramos alive, AB-101 + RTX, 24 h, batch 19AB101PN005: 59.7% | % of Ramos alive, AB-101 + RTX, 24 h, batch 20AB101PG001: 54.1% | % of Ramos alive, AB-101 + RTX, 24 h, batch 20AB101PG002: 22.1% | % of Ramos alive, AB-101 + RTX, 24 h, batch 20AB101PN001: 46.2% | % of Ramos alive, AB-101 + RTX, 24 h, batch 20AB101PN003: 57.7% | % of Ramos alive, AB-101 + RTX, 24 h, batch 20AB101PN004: 54.8% | % of Ramos alive, AB-101 + RTX, 48 h, batch 19AB101PN001: 12.1% | % of Ramos alive, AB-101 + RTX, 48 h, batch 19AB101PN004: 18.6% | % of Ramos alive, AB-101 + RTX, 48 h, batch 19AB101PN005: 38.1% | % of Ramos alive, AB-101 + RTX, 48 h, batch 20AB101PG001: 37.4% | % of Ramos alive, AB-101 + RTX, 48 h, batch 20AB101PG002: 7.7% | % of Ramos alive, AB-101 + RTX, 48 h, batch 20AB101PN001: 22.8% | % of Ramos alive, AB-101 + RTX, 48 h, batch 20AB101PN002: 53% | % of Ramos alive, AB-101 + RTX, 48 h, batch 20AB101PN003: 34.4% | % of Ramos alive, AB-101 + RTX, 48 h, batch 20AB101PN004: 29.2% | % of Ramos alive, AB-101 + RTX, 72 h, batch 19AB101PN001: 6.6% | % of Ramos alive, AB-101 + RTX, 72 h, batch 19AB101PN004: 11.4% | % of Ramos alive, AB-101 + RTX, 72 h, batch 19AB101PN005: 30.9% | % of Ramos alive, AB-101 + RTX, 72 h, batch 20AB101PG001: 23.5% | % of Ramos alive, AB-101 + RTX, 72 h, batch 20AB101PG002: 4.1% | % of Ramos alive, AB-101 + RTX, 72 h, batch 20AB101PN001: 11% | % of Ramos alive, AB-101 + RTX, 72 h, batch 20AB101PN002: 40.3% | % of Ramos alive, AB-101 + RTX, 72 h, batch 20AB101PN003: 21.8% | % of Ramos alive, AB-101 + RTX, 72 h, batch 20AB101PN004: 21.3% | lysis of target cells (Raji), AB-101 combined with rituximab, end of the 72 hour co-culture, E:T 1:1 (live-cell analysis, Example 9): 90% | lysis of target cells (Ramos), AB-101 combined with rituximab, end of 72 hrs co-culture, E:T 1:1 (live-cell analysis, Example 9): 80%
Substance: Rituximab (Mabthera or Rituxan) (antibody)
Viable Raji cells (%), AB-101 + RTX, 24 hrs, mean of 9 AB-101 batches (long-term ADCC, IncuCyte): 23.9% | Viable Raji cells (%), AB-101 + RTX, 48 hrs, mean of 9 AB-101 batches (long-term ADCC, IncuCyte): 11.7% | Viable Raji cells (%), AB-101 + RTX, 72 hrs, mean of 9 AB-101 batches (long-term ADCC, IncuCyte): 10.1% | Viable Ramos cells (%), AB-101 + RTX, 24 hrs, mean of 9 AB-101 batches (long-term ADCC, IncuCyte): 47.6% | Viable Ramos cells (%), AB-101 + RTX, 48 hrs, mean of 9 AB-101 batches (long-term ADCC, IncuCyte): 28.1% | Viable Ramos cells (%), AB-101 + RTX, 72 hrs, mean of 9 AB-101 batches (long-term ADCC, IncuCyte): 19%
